Data taken from patent US20170173114A1, “METHODS AND COMPOSITIONS FOR INDUCTION OF UCP1 EXPRESSION” (Joslin Diabetes Center, Inc., priority 2014, published 2017).
“Also recorded” adds a separate entry of the source.

Legend:
mature brown adipocytes = assay: Oxygen consumption rate in mature brown adipocytes (Seahorse); format: cell-based; settings: 24 hours; vs buffer
Description: To assess mitochondrial respiration, a Seahorse Extracellular Flux Analyzer (Seahorse Bioscience Inc., North Billerica, Mass.) was used to quantify oxygen consumption rates (OCR) of differentiated […] brown adipocytes. Wt-1 brown preadipocyte cells were seeded on 24-well format plates and allowed to adhere overnight. After adipogenic induction for 8 days, OCR was analyzed. To measure OCR […] oxidative phosphorylation, 0.5 μM oligomycin (EMD Chemicals Inc., Gibbstown, N.J.) was added to cells. Subsequently, 0.8 μM FCCP (carbonyl cyanide-p-trifluoromethoxyphenylhydrazone) and 1 μM respiratory chain inhibitors (rotenone) were added to measure maximal respiration and basal rates of nonmitochondrial respiration. As shown in FIGS. 23A and 23B, treatment of FGF6 enhanced oxygen consumption and glucose uptake in mature brown adipocytes. Thus, FGF6 was able to activate the mature brown adipocyte's ability to use glucose and increase energy expenditure without inducing UCP-1.

LDHA, PDK1, PKM2 = assay: LDHA, PDK1 and PKM2 mRNA expression in WT-1 cells; format: cell-based, murine; settings: WT-1, 24 hours; vs vehicle
Description: To test the role of specific prostaglandins (PGs) in activating UCP1 expression, WT-1 brown adipocytes were pretreated with PGE2, PGI2 and FGF6 for 24 hours. mRNA expression levels of UCP1, PTGS2, LDHA, PDK1 and PKM2 were then measured.

UCP1 [1] = assay: UCP1 expression in 3T3-F442A white preadipocytes overexpressing FGF6; format: cell-based; settings: constitutive overexpression of FGF6 in 3T3-F442A
Description: FGF6 lentiviral vector was generated by cloning mouse FGF6 cDNA into a lentiviral vector. Lentiviruses were obtained by transfecting 293T cells with lentiviral vectors. Viral supernatant was filtered through 0.45 um filter before applying to cells. Transduction was accomplished by incubating cells with virus supernatant. Stable cells were established by drug selection. The lentiviral vector contains a drug resistant gene for selection.
To assess FGF6's role in the regulation of mitochondrial activity, FGF6 was stably expressed in WT-1 brown preadipocytes and 3T3-F442A white preadipocytes. Stable cells were generated by viral infection followed by drug selection.
As mentioned above, 3T3-F442A white preadipocytes were also used to determine FGF6's role in mitochondrial activity regulation.

UCP1 [2] = assay: UCP1 mRNA expression in SVF cells from interscapular brown adipose tissue (BAT-SVF); format: cell-based, C57BL/6 mice; settings: growth media, 3 days; vs control
Description: Eight 6-week old C57BL/6 male mice were sacrificed. Interscapular BAT and axillary subcutaneous WAT were removed, minced and digested with 1 mg/ml collagenase for 45 minutes at 37° C. in DMEM/F12 media, containing 1% BSA and antibiotics. Digested tissues were filtered through sterile 150 μm nylon mesh and centrifuged at 250×g for 5 minutes. The floating fractions consisting of adipocytes were discarded and the pellets representing the SVF were then resuspended in erythrocyte lysis buffer (154 mM NH4Cl, 10 mM KHCO3, 0.1 mM EDTA) for 10 minutes to remove red blood cells. The cells were further centrifuged at 500×g for 5 minutes, plated at 8×10^5 cells/well of a 24-well plate and grown at 37° C. in DMEM/F12 supplemented with 10% FBS at 37° C.
To determine if FGF6 treatment of primary adipose progenitors could also increase UCP1 expression as observed in Example 1, stromo-vascular fraction (SVF) cells, which comprise adipocyte progenitors, were isolated from interscapular brown adipose tissue (BAT-SVF) and subcutaneous white adipose tissue (SQ-SVF). SVF cells were subsequently treated with FGF6 or FGF21 in growth media (DMEM+10% FBS) for 3 days, followed by determination of UCP1 expression. As described in FIGS. 9A and 9B, FGF21 treatment had little effect on UCP1 mRNA expression in either type of SVF cells, as compared to the control. […]

[3] = Glucose levels after subcutaneous injection in Chow or high fat diet mice; format: in vivo, C57BL6 mice; settings: 0.5 mg/kg subcutaneous; vs buffer
Description: To determine whether induction of UCP1 and mitochondrial activity by FGF6 could lead to increased nutrient utilization and lower blood glucose or fatty acid in obese mice, diet-induced obese (DIO) mice were treated with recombinant FGF6, and glucose levels were monitored after injection. Specifically, C57BL6 mice (11 weeks) were fed on either a high fat diet (HFD) or a Chow diet (a regular animal diet as a control) and were injected subcutaneously with 0.5 mg/kg recombinant FGF6 (n=5) or buffer (n=5). Glucose levels were measured every 6 hours after injection.

B1: FGF6: fibroblast growth factor 6; recombinant human FGF from R&D Systems, or mouse FGF6 cDNA overexpressed by lentiviral vector (protein)
chain: KRQRRLYCNVGIGFHLQVLPDGRISGTHEENPYSLLEISTVERGVVSLFGVRSALFVAMNSKGRLYATPSFQEECKFRETLLPNNYNAYESDLYQGTYIALSKYGRVKRGSKVSPIMTVTHFLPRI
oxygen consumption in mature brown adipocytes (mature brown adipocytes): enhanced | LDHA mRNA expression (LDHA, PDK1, PKM2): increase | PDK1 mRNA expression (LDHA, PDK1, PKM2): increase | PKM2 mRNA expression (LDHA, PDK1, PKM2): increase | UCP1 expression (UCP1 [1]): resulted in UCP1 expression; also recorded: marked increases | increase of UCP1 mRNA expression in BAT-SVF (UCP1 [2]): 4 fold | glucose level, Chow diet mice [3]: reduction in glucose levels; also recorded: lowers glucose levels | glucose level, high fat diet (obese) mice [3]: lowers glucose levels
